In patent US20050042624A1, “Tumor antigen” (Kyogo ITOH, priority 2001, published 2005):

B1: SW620-cl.48: cDNA clone from SW620 encoding SW620-48-PP (nucleic acid, listed as Homo sapiens)
DNA: CCTTTCCAAGGGAGTGGTTGTGTGATCGCCATCTTAGGGAAAAGATGTTCTCGTCCGTGGCGCACCTGGCGCGGGCGAACCCCTTCAACACGCCACATCTGCAGCTGGTGCACGATGGTCTCGGGGACCTCCGCAGCAGCTCCCCAGGGCCCACGGGCCAGCCCCGCCGCCCTCGCAACCTGGCAGCCGCCGCCGTGGAAGAGTACAGTTGTGAATTTGGCTCCGCGAAGTATTATGCACTGTGTGGCTTTGGTGGGGTCTTAAGTTGTGGTCTGACACACACTGCTGTGGTTCCCCTGGATTTAGTGAAATGCCGTATGCAGGTGGACCCCCAAAAGTACAAGGGCATATTTAACGGATTCTCAGTTACACTTAAAGAGGATGGTGTTCGTGGTTTGGCTAAAGGATGGGCTCCGACTTTCCTTGGCTACTCCATGCAGGGACTCTGCAAGTTTGGCTTTTATGAAGTCTTTAAAGTCTTGTATAGCAATATGCTTGGAGAGGAGAATACTTATCTCTGGCGCACATCACTATATTTGGCTGCCTCTGCCAGTGCTGAATTCTTTGCTGACATTGCCCTGGCTCCTATGGAAGCTGCTAAGGTTCGAATTCAAACCCAGCCAGGTTATGCCAACACTTTGAGGGATGCAGCTCCCAAAATGTATAAGGAAGAAGGCCTAAAAGCATTCTACAAGGGGGTTGCTCCTCTCTGGATGAGACAGATACCATACACCATGATGAAGTTCGCCTGCTTTGAACGTACTGTTGAAGCACTGTACAAGTTTGTGGTTCCTAAGCCCCGCAGTGAATGTTCAAAGCCAGAGCAGCTGGTTGTAACATTTGTAGCAGGTTACATAGCTGGAGTCTTTTGTGCAATTGTTTCTCACCCTGCTGATTCTGTGGTATCTGTGTTGAATAAAGAAAAAGGTAGCAGTGCTTCTCTGGTCCTCAAGAGACTTGGATTTAAAGGTGTATGGAAGGGACTGTTTGCCCGTATCATCATGATTGGTACCCTGACTGCACTACAGTGGTTTATCTATGACTCCGTGAAGGTCTACTTCAGACTTCCTCGCCCTCCTCCACCCGAGATGCCAGAGTCTCTGAAGAAGAAGCTTGGGTTAACTCAGTAGTTAGATCAAAGCAAATGTGGACTGAATCTGCTTGTTGATCAGTGTTGAAGAAAGTGCAAAAGGAACTTTTATATATTTGACAGTGTAGGAAATTGTCTATTCCTGATATAATTACTGTAGTACTCTTGCTTAAGGCAAGAGTTTCAGATTTACTGTTGAAATAAACCCAACTCTTCATGAAAAAAAAAAAAAAA
B2: KE4-cl.18: cDNA clone from esophageal cancer cell line KE4 encoding KE4-18-PP (nucleic acid, listed as Homo sapiens)
DNA: GGGGCCGGGGCCGAGGCCGCGGAGCTCGCGGAGGCAAGGCCGAGGATAAGGAGTGGATGCCCGTCACCAAGTTGGGCCGCTTGGTCAAGGACATGAAGATCAAGTCCCTGGAGGAGATCTATCTCTTCTCCCTGCCCATTAAGGAATCAGAGATCATTGATTTCTTCCTGGGGGCCTCTCTCAAGGATGAGGTTTTGAAGATTATGCCAGTGCAGAAGCAGACCCGTGCCGGCCAGCGCACCAGGTTCAAGGCATTTGTTGCTATCGGGGACTACAATGGCCACGTCGGTCTGGGTGTTAAGTGCTCCAAGGAGGTGGCCACCGCCATCCGTGGGGCCATCATCCTGGCCAAGCTCTCCATCGTCCCCGTGCGCAGAGGCTACTGGGGGAACAAGATCGGCAAGCCCCACACTGTCCCTTGCAAGGTGACAGGCCGCTGCGGCTCTGTGCTGGTACGCCTCATCCCTGCACCCAGGGGCACTGGCATCGTCTCCGCACCTGTGCCTAAGAAGCTGCTCATGATGGCTGGTATCGATGACTGCTACACCTCAGCCCGGGGCTGCACTGCCACCCTGGGCAACTTCGCCAAGGCCACCTTTGATGCCATTTCTAAGACCTACAGCTACCTGACCCCCGACCTCTGGAAGGAGACTGTATTCACCAAGTCTCCCTATCAGGAGTTCACTGACCACCTCGTCAAGACCCACACCAGAGTCTCCGTGCAGCGGACTCAGGCTCCAGCTGTGGCTACAACATAGGGTTTTTATACAAGAAAAATAAAGTGAATTTAGCGTGAAAAAAAAAAAAAAAAAAAAAAAAAA

Legend:
OK-CTLd = experiment: IFN-γ production from OK-CTLd against COS-7 cells co-transfected with cDNA clone and HLA-A0207 (ELISA); assay type: cell-based, human
Protocol: Cryopreserved OK-CTLd was cultured in the presence of 100 U/ml of IL-2 for 2 weeks or more to use in the experiments.
A cDNA library of SW620 cells was pooled so that each pool contained 100 clones, and 200 ng of the cDNA pooled in each well and 200 ng of the HLA-A0207 cDNA were mixed in 100 ul of lipofectoamine (Invitrogen Corp.)/Opti-MEM (Invitrogen Corp.) 1:200 mixture for 30 min. 50 μl of the obtained mixture was added to a simian kidney cell line COS-7 (1×10^4), and incubated for 6 h for co-transduction. Then, RPMI-1640 culture medium containing 10% FCS was added to and culturing was carried out for 2 days, followed by addition of OK-CTLd (2×10^5) to each well. After a further 18 h incubation, 100 μl of the supernatant was collected, and IFN-γ production was measured by ELISA. In this case, as a negative control, using COS-7 cells into which the gene had not been transfected as a target, IFN-γ production from OK-CTLd was examined and the value of IFN-γ produced was subtracted as a background from that of each measurement.
A pool of cDNA library was screened with the criteria in which cDNA capable of enhancing IFN-γ production from OK-CTLd was judged as a positive one having CTL-activating ability. […]

KE4-CTL = experiment: IFN-γ production from KE4-CTL against VA13 cells co-transfected with cDNA clone and HLA-A2601; assay type: cell-based, human
Source text: A gene encoding a tumor antigen recognized by KE4-CTL was isolated/identified from a human esophageal cancer cell line KE4 according to a known method [J. Exp. Med., 187: 277-288, 1998.] First of all, poly (A) ^+RNA of KE4 cells was converted to cDNA, ligated with a SalI adaptor so as to insert into the expression vector pSV-SPORT-1 (Invitrogen Corp.). Moreover, cDNA of HLA-A2601 was obtained by the reverse transcription-polymerase chain reaction (RT-PCR) and cloned into the eukaryotic cell expression vector pCR3 (Invitrogen Corp.).
A cDNA library of KE4 cells was pooled so that each pool contained 100 clones, and 200 ng of the cDNA pooled in each well and 200 ng of the HLA-A2601cDNA were mixed in 100 μl of lipofectoamine (Invitrogen Corp.)/Opti-MEM (Invitrogen Corp.) 1:200 mixture for 30 min. 50 μl of the obtained mixture was added to VA13 cells (1×10^4), and incubated for 6 h for co-transduction. Then, RPMI-1640 culture medium containing 10% FCS was added thereto and culturing was carried out for 2 days, followed by addition of KE4-CTL (2×10^5) to each well. After a further 18 h incubation, 100 μl of the supernatant was collected, and IFN-γ production was measured by ELISA.
A pool of cDNA library was screened with the criteria in which cDNA capable of enhancing IFN-γ production from KE4-CTL was judged as a positive one having CTL-activating ability. […]

| Molecule | recognition of cDNA clone by OK-CTLd, enhancement of IFN-γ production (OK-CTLd) | recognition of cDNA clone by KE4-CTL, enhancement of IFN-γ production (KE4-CTL) |
| --- | --- | --- |
| B1 | recognized by OK-CTLd in an HLA-A2-restricted manner and in a dose dependent manner of plasmid | – |
| B2 | – | recognized by KE4-CTL in an HLA-A26-restricted manner and in a dose dependent manner of plasmid |
